For this test, the target named is PD-1 (human). Kind of test: cell-based or functional assay.

Sequence of Full length ECD of PD-L2 (ligand) (Q9BQ51 20-220): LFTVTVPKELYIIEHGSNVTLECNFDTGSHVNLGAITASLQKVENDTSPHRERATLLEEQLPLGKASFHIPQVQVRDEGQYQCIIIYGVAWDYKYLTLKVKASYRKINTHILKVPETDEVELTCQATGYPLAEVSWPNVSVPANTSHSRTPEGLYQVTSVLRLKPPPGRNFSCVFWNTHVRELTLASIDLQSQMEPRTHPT

Full length ECD of PD-L2 (ligand) had an IFN gamma levels pg/mL, MLR of 1170 pg/mL. PD-L2 IgV-Fc E44D (Fc fusion): the Fold increase over wildtype PD-L2 IgV-Fc, MLR IFN gamma was determined as 1.09 fold and the IFN gamma levels pg/mL, MLR turned out to be 1500 pg/mL. “PD-L2 IgV-Fc E44D, S67L, Q72H, Q82R, V89D (Fc fusion)” came in with a Fold increase over wildtype PD-L2 IgV-Fc, MLR IFN gamma of 0.93 fold and an IFN gamma levels pg/mL, MLR of 1280 pg/mL. Substance “PD-L2 IgV-Fc E44D, V89D, W91R (Fc fusion)” yielded a Fold increase over wildtype PD-L2 IgV-Fc, MLR IFN gamma of 1.13 fold and an IFN gamma levels pg/mL, MLR of 1560 pg/mL. Taken in the same sequence, the figures for PD-L2 IgV-Fc E59G, Q82R (Fc fusion) were 1.1 fold and 1510 pg/mL. Regarding “PD-L2 IgV-Fc F2L, H15Q, D46E, T47A, Q72H, R76G, Q82R, V89D (Fc fusion)”, the Fold increase over wildtype PD-L2 IgV-Fc, MLR IFN gamma stood at 0.85 fold and the IFN gamma levels pg/mL, MLR came to 1170 pg/mL. In turn, “PD-L2 IgV-Fc G28V, Q72H, R76G, I86T (Fc fusion)” had a Fold increase over wildtype PD-L2 IgV-Fc, MLR IFN gamma of 1.29 fold and an IFN gamma levels pg/mL, MLR of 1780 pg/mL.

For “PD-L2 IgV-Fc H15Q, C23S, I86T (Fc fusion)”, the Fold increase over wildtype PD-L2 IgV-Fc, MLR IFN gamma came to 1.34 fold and the IFN gamma levels pg/mL, MLR was determined as 1850 pg/mL. For “PD-L2 IgV-Fc H15Q, E44D, R76G, I85F (Fc fusion)” the same measures were 1.01 fold and 1390 pg/mL. In the case of PD-L2 IgV-Fc H15Q, K65R (Fc fusion), the Fold increase over wildtype PD-L2 IgV-Fc, MLR IFN gamma was 1.1 fold and the IFN gamma levels pg/mL, MLR came out at 1510 pg/mL. Taken in the same sequence, the figures for “PD-L2 IgV-Fc H15Q, L33H, S67L, R76G, Q82R, V89D (Fc fusion)” were 1.09 fold and 1500 pg/mL. Taken in the same sequence, the figures for “PD-L2 IgV-Fc H15Q, L33P, T47A, S67L, P71S, V89D (Fc fusion)” were 0.94 fold and 1290 pg/mL. In the case of “PD-L2 IgV-Fc H15Q, N18D, T47A, Q72H, V73A, R76G, I86T, V89D (Fc fusion)”, the Fold increase over wildtype PD-L2 IgV-Fc, MLR IFN gamma was determined as 0.77 fold and the IFN gamma levels pg/mL, MLR is 1070 pg/mL. On to “PD-L2 IgV-Fc H15Q, N24S, T47A, Q72H, R76G, V89D (Fc fusion)”, for which the Fold increase over wildtype PD-L2 IgV-Fc, MLR IFN gamma was found to be 0.79 fold and the IFN gamma levels pg/mL, MLR turned out to be 1090 pg/mL. In the case of “PD-L2 IgV-Fc H15Q, N32D, S67L, V89D (Fc fusion)”, the Fold increase over wildtype PD-L2 IgV-Fc, MLR IFN gamma is 0.93 fold and the IFN gamma levels pg/mL, MLR was 1290 pg/mL. For “PD-L2 IgV-Fc H15Q, Q72H, Q74R, R76G, I86T (Fc fusion)” the same measures were 0.68 fold and 934 pg/mL. Taken in the same sequence, the figures for “PD-L2 IgV-Fc H15Q, Q72H, V89D (Fc fusion)” were 0.92 fold and 1270 pg/mL.

“PD-L2 IgV-Fc H15Q, Q82R, V89D (Fc fusion)” displayed a Fold increase over wildtype PD-L2 IgV-Fc, MLR IFN gamma of 0.79 fold and an IFN gamma levels pg/mL, MLR of 1080 pg/mL. For “PD-L2 IgV-Fc H15Q, R76G, I85F (SEQ ID NO 1500) (Fc fusion)” the same measures were 1.25 fold and 1730 pg/mL. For “PD-L2 IgV-Fc H15Q, R76G, I85F (SEQ ID NO 1505) (Fc fusion)” the same measures were 1.04 fold and 1440 pg/mL. Taken in the same sequence, the figures for “PD-L2 IgV-Fc H15Q, S39I, E44D, Q72H, V75G, R76G, Q82R, V89D (Fc fusion)” were 0.68 fold and 941 pg/mL. Regarding “PD-L2 IgV-Fc H15Q, S39I, I86T (Fc fusion)”, the Fold increase over wildtype PD-L2 IgV-Fc, MLR IFN gamma came to 1.03 fold and the IFN gamma levels pg/mL, MLR was 1420 pg/mL.

Substance “PD-L2 IgV-Fc H15Q, S39I, S67L, V89D (Fc fusion)” came in with a Fold increase over wildtype PD-L2 IgV-Fc, MLR IFN gamma of 0.89 fold and an IFN gamma levels pg/mL, MLR of 1230 pg/mL. For “PD-L2 IgV-Fc H15Q, S67L, I86T (Fc fusion)” the same measures were 0.75 fold and 1030 pg/mL.

In the case of “PD-L2 IgV-Fc H15Q, S67L, Q72H, R76G, V89D (Fc fusion)”, the Fold increase over wildtype PD-L2 IgV-Fc, MLR IFN gamma was 0.77 fold and the IFN gamma levels pg/mL, MLR is 1060 pg/mL. Taken in the same sequence, the figures for “PD-L2 IgV-Fc H15Q, S67L, R76G (Fc fusion)” were 1.04 fold and 1430 pg/mL. Taken in the same sequence, the figures for “PD-L2 IgV-Fc H15Q, S67L, R76G, I85F (Fc fusion)” were 0.96 fold and 1320 pg/mL. Taken in the same sequence, the figures for PD-L2 IgV-Fc H15Q, T47A (Fc fusion) were 1.19 fold and 1640 pg/mL. For the substance “PD-L2 IgV-Fc H15Q, T47A, H69L, Q82R, V89D (Fc fusion)”, the Fold increase over wildtype PD-L2 IgV-Fc, MLR IFN gamma was determined as 1.26 fold and the IFN gamma levels pg/mL, MLR was found to be 1730 pg/mL.

With “PD-L2 IgV-Fc H15Q, T47A, K65R, S67L, Q82R, V89D (Fc fusion)”, the Fold increase over wildtype PD-L2 IgV-Fc, MLR IFN gamma is 0.97 fold and the IFN gamma levels pg/mL, MLR was 1340 pg/mL.

“PD-L2 IgV-Fc H15Q, T47A, Q72H, R76G (Fc fusion)”: the Fold increase over wildtype PD-L2 IgV-Fc, MLR IFN gamma amounted to 1.06 fold and the IFN gamma levels pg/mL, MLR was 1460 pg/mL. Regarding “PD-L2 IgV-Fc H15Q, T47A, Q72H, R76G, I86T (Fc fusion)”, the Fold increase over wildtype PD-L2 IgV-Fc, MLR IFN gamma was determined as 1.16 fold and the IFN gamma levels pg/mL, MLR stood at 1600 pg/mL. Taken in the same sequence, the figures for “PD-L2 IgV-Fc H15Q, T47A, Q82R (Fc fusion)” were 0.96 fold and 1320 pg/mL. For “PD-L2 IgV-Fc H15Q, T47A, S67L, Q82R, V89D (Fc fusion)” the same measures were 0.87 fold and 1200 pg/mL. For “PD-L2 IgV-Fc H15Q, T47A, S67L, R76G, Q82R, V89D (Fc fusion)” the same measures were 0.8 fold and 1100 pg/mL. For the substance “PD-L2 IgV-Fc H15Q, V31M, S67L, Q82R, V89D (Fc fusion)”, the Fold increase over wildtype PD-L2 IgV-Fc, MLR IFN gamma was 0.88 fold and the IFN gamma levels pg/mL, MLR stood at 1210 pg/mL.

The substance PD-L2 IgV-Fc H15Q, V89D (Fc fusion) displayed a Fold increase over wildtype PD-L2 IgV-Fc, MLR IFN gamma of 1.09 fold and an IFN gamma levels pg/mL, MLR of 1500 pg/mL. Taken in the same sequence, the figures for “PD-L2 IgV-Fc I12V, I13V, H15Q, T47A, Q82R, V89D (Fc fusion)” were 1.11 fold and 1530 pg/mL. Taken in the same sequence, the figures for “PD-L2 IgV-Fc I13V, E44D, Q82R, V89D (Fc fusion)” were 0.73 fold and 1010 pg/mL. For “PD-L2 IgV-Fc I13V, H15Q, E44D, V89D (Fc fusion)” the same measures were 1.01 fold and 1380 pg/mL. For “PD-L2 IgV-Fc I13V, H15Q, E44V, T47A, Q82R, V89D (Fc fusion)”, the Fold increase over wildtype PD-L2 IgV-Fc, MLR IFN gamma is 0.92 fold and the IFN gamma levels pg/mL, MLR was 1270 pg/mL. Taken in the same sequence, the figures for “PD-L2 IgV-Fc I13V, H15Q, I36V, T47A, S67L, V89D (Fc fusion)” were 0.99 fold and 1360 pg/mL. Taken in the same sequence, the figures for “PD-L2 IgV-Fc I13V, H15Q, L33F, T47A, Q82R, V89D (Fc fusion)” were 1.07 fold and 1470 pg/mL. On to “PD-L2 IgV-Fc I13V, H15Q, Q72H, R76G, I86T (Fc fusion)”, for which the Fold increase over wildtype PD-L2 IgV-Fc, MLR IFN gamma was 0.89 fold and the IFN gamma levels pg/mL, MLR was 1220 pg/mL.

On to “PD-L2 IgV-Fc I13V, H15Q, Q82R (Fc fusion)”, for which the Fold increase over wildtype PD-L2 IgV-Fc, MLR IFN gamma is 1.04 fold and the IFN gamma levels pg/mL, MLR worked out at 1430 pg/mL. Taken in the same sequence, the figures for “PD-L2 IgV-Fc I13V, H15Q, Q82R, V89D (Fc fusion)” were 1.16 fold and 1600 pg/mL. For “PD-L2 IgV-Fc I13V, H15Q, R76G, D77N, Q82R, V89D (Fc fusion)” the same measures were 0.86 fold and 1190 pg/mL. “PD-L2 IgV-Fc I13V, H15Q, R76G, I85F (Fc fusion)” yielded a Fold increase over wildtype PD-L2 IgV-Fc, MLR IFN gamma of 1.11 fold and an IFN gamma levels pg/mL, MLR of 1530 pg/mL.

“PD-L2 IgV-Fc I13V, H15Q, S39I, E44D, S67L (Fc fusion)” gave a Fold increase over wildtype PD-L2 IgV-Fc, MLR IFN gamma of 0.91 fold and an IFN gamma levels pg/mL, MLR of 1260 pg/mL. Regarding “PD-L2 IgV-Fc I13V, H15Q, S67L, I86T (Fc fusion)”, the Fold increase over wildtype PD-L2 IgV-Fc, MLR IFN gamma stood at 0.74 fold and the IFN gamma levels pg/mL, MLR stood at 1010 pg/mL.

Substance “PD-L2 IgV-Fc I13V, H15Q, T37A, E44D, S48C, S67L, Q82R, V89D (Fc fusion)” had a Fold increase over wildtype PD-L2 IgV-Fc, MLR IFN gamma of 1.27 fold and an IFN gamma levels pg/mL, MLR of 1750 pg/mL.

In turn, “PD-L2 IgV-Fc I13V, H15Q, T47A, E58G, S67L, Q82R, V89D (Fc fusion)” showed a Fold increase over wildtype PD-L2 IgV-Fc, MLR IFN gamma of 0.61 fold and an IFN gamma levels pg/mL, MLR of 836 pg/mL.

Take “PD-L2 IgV-Fc I13V, H15Q, T47A, H69L, R76G, V89D (Fc fusion)”: the Fold increase over wildtype PD-L2 IgV-Fc, MLR IFN gamma came to 0.78 fold and the IFN gamma levels pg/mL, MLR was 1080 pg/mL. For “PD-L2 IgV-Fc I13V, H15Q, T47A, Q72H, R76G (Fc fusion)” the same measures were 1.07 fold and 1470 pg/mL. Substance “PD-L2 IgV-Fc I13V, H15Q, T47A, Q72H, R76G, I86T (Fc fusion)” registered a Fold increase over wildtype PD-L2 IgV-Fc, MLR IFN gamma of 0.79 fold and an IFN gamma levels pg/mL, MLR of 1090 pg/mL. Consider “PD-L2 IgV-Fc I13V, H15Q, T47A, Q82R (Fc fusion)”, for which the Fold increase over wildtype PD-L2 IgV-Fc, MLR IFN gamma worked out at 1.24 fold and the IFN gamma levels pg/mL, MLR was 1700 pg/mL.

Source of the values: patent US20200040059A1.
